# Measured values from paper PMC3112237 (Journal of virology, 2011).
# B1: recombinant Ad3 fiber knob S6/Kn (six shaft motifs and the knob domain) (domain or fragment)
# chain: GVLSLKCVNPLTTASGSLQLKVGSGLTVDTTDGSLEENIKVNTPLTKSNHSINLPIGNGLQIEQNKLCSKLGNGLTFDSSNSIALKNNTLWTGPKPEANCIIEYGKQNPDSKLTLILVKNGGIVNGYVTLMGASDYVNTLFKNKNVSINVELYFDATGHILPDSSSLKTDLELKYKQTADFSARGFMPSTTAYPFVLPNAGTHNENYIFGQCYYKASDGALFPLEVTVMLNKRLPDSRTSYVMTFLWSLNAGLAPETTQATLITSPFTFSYIREDD
# B2: recombinant Ad3 fiber knob S3/Kn (three shaft motifs and the knob domain) (domain or fragment)
# chain: HSINLPIGNGLQIEQNKLCSKLGNGLTFDSSNSIALKNNTLWTGPKPEANCIIEYGKQNPDSKLTLILVKNGGIVNGYVTLMGASDYVNTLFKNKNVSINVELYFDATGHILPDSSSLKTDLELKYKQTADFSARGFMPSTTAYPFVLPNAGTHNENYIFGQCYYKASDGALFPLEVTVMLNKRLPDSRTSYVMTFLWSLNAGLAPETTQATLITSPFTFSYIREDD
# B3: recombinant Ad3 fiber knob S5/Kn (five shaft motifs and the knob domain) (domain or fragment)
# chain: GSLQLKVGSGLTVDTTDGSLEENIKVNTPLTKSNHSINLPIGNGLQIEQNKLCSKLGNGLTFDSSNSIALKNNTLWTGPKPEANCIIEYGKQNPDSKLTLILVKNGGIVNGYVTLMGASDYVNTLFKNKNVSINVELYFDATGHILPDSSSLKTDLELKYKQTADFSARGFMPSTTAYPFVLPNAGTHNENYIFGQCYYKASDGALFPLEVTVMLNKRLPDSRTSYVMTFLWSLNAGLAPETTQATLITSPFTFSYIREDD
# B4: recombinant Ad3 fiber knob S/Kn (one shaft motif and the knob domain) (domain or fragment)
# chain: NSIALKNNTLWTGPKPEANCIIEYGKQNPDSKLTLILVKNGGIVNGYVTLMGASDYVNTLFKNKNVSINVELYFDATGHILPDSSSLKTDLELKYKQTADFSARGFMPSTTAYPFVLPNAGTHNENYIFGQCYYKASDGALFPLEVTVMLNKRLPDSRTSYVMTFLWSLNAGLAPETTQATLITSPFTFSYIREDD
# B5: Ad3-K/S/Kn (His tag, K-coil dimerization domain, flexible linker, one shaft motif, Ad3 fiber knob) (designed binder)
# chain: KVSALKEKVSALKEKVSALKEKVSALKEKVSALKEGSGGGSGGGSGGGSNSIALKNNTLWTGPKPEANCIIEYGKQNPDSKLTLILVKNGGIVNGYVTLMGASDYVNTLFKNKNVSINVELYFDATGHILPDSSSLKTDLELKYKQTADFSARGFMPSTTAYPFVLPNAGTHNENYIFGQCYYKASDGALFPLEVTVMLNKRLPDSRTSYVMTFLWSLNAGLAPETTQATLITSPFTFSYIREDD
# modifications: biotinylated (sites not given) only where it was immobilised on streptavidin (Fig. 5A)
# B6: recombinant Ad3 fiber knob S4/Kn (four shaft motifs and the knob domain) (domain or fragment)
# chain: LEENIKVNTPLTKSNHSINLPIGNGLQIEQNKLCSKLGNGLTFDSSNSIALKNNTLWTGPKPEANCIIEYGKQNPDSKLTLILVKNGGIVNGYVTLMGASDYVNTLFKNKNVSINVELYFDATGHILPDSSSLKTDLELKYKQTADFSARGFMPSTTAYPFVLPNAGTHNENYIFGQCYYKASDGALFPLEVTVMLNKRLPDSRTSYVMTFLWSLNAGLAPETTQATLITSPFTFSYIREDD
# B7: Ad3-E/S/Kn (His tag, E-coil dimerization domain, flexible linker, one shaft motif, Ad3 fiber knob) (designed binder)
# chain: EVSALEKEVSALEKEVSALEKEVSALEKEVSALEKGSGGGSGGGSGGGSNSIALKNNTLWTGPKPEANCIIEYGKQNPDSKLTLILVKNGGIVNGYVTLMGASDYVNTLFKNKNVSINVELYFDATGHILPDSSSLKTDLELKYKQTADFSARGFMPSTTAYPFVLPNAGTHNENYIFGQCYYKASDGALFPLEVTVMLNKRLPDSRTSYVMTFLWSLNAGLAPETTQATLITSPFTFSYIREDD
# B8: recombinant Ad3 fiber knob S2/Kn (two shaft motifs and the knob domain) (domain or fragment)
# chain: NKLCSKLGNGLTFDSSNSIALKNNTLWTGPKPEANCIIEYGKQNPDSKLTLILVKNGGIVNGYVTLMGASDYVNTLFKNKNVSINVELYFDATGHILPDSSSLKTDLELKYKQTADFSARGFMPSTTAYPFVLPNAGTHNENYIFGQCYYKASDGALFPLEVTVMLNKRLPDSRTSYVMTFLWSLNAGLAPETTQATLITSPFTFSYIREDD
# Experiments:
# [1] = target: the molecule itself; assay: SDS-PAGE of unboiled samples with Western blot
# [2] = target: the molecule itself; assay: SDS-PAGE of unboiled samples, Coomassie stain
protein,measurement,setting,value
B1,stoichiometry N,[1],3
B2,stoichiometry N,[1],3
B3,stoichiometry N,[1],3
B4,stoichiometry N,[1],3
B5,stoichiometry N,[2],3
B6,stoichiometry N,[1],3
B7,stoichiometry N,[2],3
B8,stoichiometry N,[1],3
